Experimental data from the supplement of paper PMC10567573.

B1: ZNF207 (parent)
chain: CHICHKKLYTGPGLAIHCMQVHKE

Variants of: B1
Test: protein stability index of a GFP-peptide fusion (GPS, HEK-293T) (PSI 1-6); higher = more stable
Conditions: c terminus: a fixed tail appended
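Further: lentivirally expressed fusions sorted by FACS into six bins by GFP to DsRed ratio, PSI derived from sequencing read proportions per bin multiplied by bin number.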

For CHICHKKLYTGPGHAIHCMQVHKE [L14H], which protein stability index is on record?
Its protein stability index is 3.69.

For CHICHKKLYTGPGCAIHCMQVHKE [L14C], which protein stability index is on record?
The protein stability index was 3.34.

For CHICHKKLYTGPGGAIHCMQVHKE [L14G], which protein stability index is on record?
The protein stability index was 3.85.

Which protein stability index does the source give for CHICHKKLYTGPGDAIHCMQVHKE [L14D] here?
Its protein stability index is 4.56.

With CHICHKKLYTGPGEAIHCMQVHKE [L14E] as the variant, how does the protein stability index read?
Its protein stability index is 4.44.

Which protein stability index does the source give for CHICHKKLYTGPGIAIHCMQVHKE [L14I] here?
The protein stability index was 3.3.

For CHICHKKLYTGPGFAIHCMQVHKE [L14F], which protein stability index is on record?
Its protein stability index is 2.9.

For CHICHKKLYTGPGAAIHCMQVHKE [L14A], which protein stability index is on record?
Its protein stability index is 3.96.

With CHICHKHLYTGPGLAIHCMQVHKE [K7H] as the variant, how does the protein stability index read?
Its protein stability index is 3.25.

For CHICHKILYTGPGLAIHCMQVHKE [K7I], which protein stability index is on record?
Its protein stability index is 3.73.

For CHICHKVLYTGPGLAIHCMQVHKE [K7V], which protein stability index is on record?
Its protein stability index is 4.09.

Which protein stability index does the source give for CHICHKQLYTGPGLAIHCMQVHKE [K7Q] here?
The protein stability index was 4.11.

For CHICHKMLYTGPGLAIHCMQVHKE [K7M], which protein stability index is on record?
The protein stability index was 3.86.

With CHICHKRLYTGPGLAIHCMQVHKE [K7R] as the variant, how does the protein stability index read?
The protein stability index was 3.48.

Which protein stability index does the source give for CHICHKCLYTGPGLAIHCMQVHKE [K7C] here?
Its protein stability index is 3.63.

With CHICHKALYTGPGLAIHCMQVHKE [K7A] as the variant, how does the protein stability index read?
The protein stability index was 3.92.

Which protein stability index does the source give for CHICHKELYTGPGLAIHCMQVHKE [K7E] here?
The protein stability index was 4.14.

With CHICHKTLYTGPGLAIHCMQVHKE [K7T] as the variant, how does the protein stability index read?
Its protein stability index is 3.98.

With CHICHKNLYTGPGLAIHCMQVHKE [K7N] as the variant, how does the protein stability index read?
The protein stability index was 4.21.

For CHICHKGLYTGPGLAIHCMQVHKE [K7G], which protein stability index is on record?
The protein stability index was 3.27.

With CHICHKLLYTGPGLAIHCMQVHKE [K7L] as the variant, how does the protein stability index read?
The protein stability index was 4.3.

For CHICHKYLYTGPGLAIHCMQVHKE [K7Y], which protein stability index is on record?
Its protein stability index is 4.2.

Which protein stability index does the source give for CHICHKFLYTGPGLAIHCMQVHKE [K7F] here?
Its protein stability index is 4.02.

For CHICHKPLYTGPGLAIHCMQVHKE [K7P], which protein stability index is on record?
The protein stability index was 2.55.

Which protein stability index does the source give for CHICHKWLYTGPGLAIHCMQVHKE [K7W] here?
The protein stability index was 3.27.

With CHICHKDLYTGPGLAIHCMQVHKE [K7D] as the variant, how does the protein stability index read?
The protein stability index was 4.16.

For CHICHKSLYTGPGLAIHCMQVHKE [K7S], which protein stability index is on record?
Its protein stability index is 3.66.

Which protein stability index does the source give for CHICIKKLYTGPGLAIHCMQVHKE [H5I] here?
Its protein stability index is 2.03.

With CHICSKKLYTGPGLAIHCMQVHKE [H5S] as the variant, how does the protein stability index read?
The protein stability index was 2.83.

For CHICDKKLYTGPGLAIHCMQVHKE [H5D], which protein stability index is on record?
The protein stability index was 3.49.

For CHICFKKLYTGPGLAIHCMQVHKE [H5F], which protein stability index is on record?
Its protein stability index is 3.26.

With CHICTKKLYTGPGLAIHCMQVHKE [H5T] as the variant, how does the protein stability index read?
The protein stability index was 2.48.

With CHICGKKLYTGPGLAIHCMQVHKE [H5G] as the variant, how does the protein stability index read?
The protein stability index was 3.35.

With CHICNKKLYTGPGLAIHCMQVHKE [H5N] as the variant, how does the protein stability index read?
Its protein stability index is 3.18.

Which protein stability index does the source give for CHICLKKLYTGPGLAIHCMQVHKE [H5L] here?
The protein stability index was 3.01.

For CHICMKKLYTGPGLAIHCMQVHKE [H5M], which protein stability index is on record?
Its protein stability index is 3.33.

For CHICEKKLYTGPGLAIHCMQVHKE [H5E], which protein stability index is on record?
Its protein stability index is 3.63.

Which protein stability index does the source give for CHICKKKLYTGPGLAIHCMQVHKE [H5K] here?
Its protein stability index is 2.55.

With CHICWKKLYTGPGLAIHCMQVHKE [H5W] as the variant, how does the protein stability index read?
The protein stability index was 2.74.

Which protein stability index does the source give for CHICRKKLYTGPGLAIHCMQVHKE [H5R] here?
The protein stability index was 2.96.

With CHICPKKLYTGPGLAIHCMQVHKE [H5P] as the variant, how does the protein stability index read?
The protein stability index was 2.39.

For CHICVKKLYTGPGLAIHCMQVHKE [H5V], which protein stability index is on record?
The protein stability index was 1.63.

With CHICQKKLYTGPGLAIHCMQVHKE [H5Q] as the variant, how does the protein stability index read?
The protein stability index was 2.79.

With CHICAKKLYTGPGLAIHCMQVHKE [H5A] as the variant, how does the protein stability index read?
The protein stability index was 3.83.

Which protein stability index does the source give for CHICCKKLYTGPGLAIHCMQVHKE [H5C] here?
The protein stability index was 2.4.

Which protein stability index does the source give for CHICYKKLYTGPGLAIHCMQVHKE [H5Y] here?
The protein stability index was 2.97.

For CHICHKKLYTGPMLAIHCMQVHKE [G13M], which protein stability index is on record?
The protein stability index was 3.64.

With CHICHKKLYTGPFLAIHCMQVHKE [G13F] as the variant, how does the protein stability index read?
Its protein stability index is 2.11.

For CHICHKKLYTGPPLAIHCMQVHKE [G13P], which protein stability index is on record?
The protein stability index was 2.43.

With CHICHKKLYTGPELAIHCMQVHKE [G13E] as the variant, how does the protein stability index read?
The protein stability index was 4.3.

For CHICHKKLYTGPDLAIHCMQVHKE [G13D], which protein stability index is on record?
The protein stability index was 4.82.

With CHICHKKLYTGPTLAIHCMQVHKE [G13T] as the variant, how does the protein stability index read?
Its protein stability index is 3.37.

For CHICHKKLYTGPQLAIHCMQVHKE [G13Q], which protein stability index is on record?
Its protein stability index is 4.07.

Which protein stability index does the source give for CHICHKKLYTGPILAIHCMQVHKE [G13I] here?
The protein stability index was 2.3.

For CHICHKKLYTGPALAIHCMQVHKE [G13A], which protein stability index is on record?
The protein stability index was 4.96.

With CHICHKKLYTGPRLAIHCMQVHKE [G13R] as the variant, how does the protein stability index read?
The protein stability index was 2.41.

For CHICHKKLYTGPCLAIHCMQVHKE [G13C], which protein stability index is on record?
Its protein stability index is 3.65.

With CHICHKKLYTGPYLAIHCMQVHKE [G13Y] as the variant, how does the protein stability index read?
The protein stability index was 2.12.

With CHICHKKLYTGPHLAIHCMQVHKE [G13H] as the variant, how does the protein stability index read?
The protein stability index was 4.02.

For CHICHKKLYTGPVLAIHCMQVHKE [G13V], which protein stability index is on record?
Its protein stability index is 2.54.

For CHICHKKLYTGPSLAIHCMQVHKE [G13S], which protein stability index is on record?
Its protein stability index is 3.83.

With CHICHKKLYTGPKLAIHCMQVHKE [G13K] as the variant, how does the protein stability index read?
The protein stability index was 3.15.

For CHICHKKLYTGPLLAIHCMQVHKE [G13L], which protein stability index is on record?
Its protein stability index is 2.9.

Which protein stability index does the source give for CHICHKKLYTGPWLAIHCMQVHKE [G13W] here?
The protein stability index was 2.07.

For CHICHKKLYTGPNLAIHCMQVHKE [G13N], which protein stability index is on record?
Its protein stability index is 3.77.

For CHICHTKLYTGPGLAIHCMQVHKE [K6T], which protein stability index is on record?
The protein stability index was 2.15.

Which protein stability index does the source give for CHICHVKLYTGPGLAIHCMQVHKE [K6V] here?
The protein stability index was 3.41.

For CHICHIKLYTGPGLAIHCMQVHKE [K6I], which protein stability index is on record?
The protein stability index was 2.63.

Which protein stability index does the source give for CHICHAKLYTGPGLAIHCMQVHKE [K6A] here?
The protein stability index was 4.37.

For CHICHHKLYTGPGLAIHCMQVHKE [K6H], which protein stability index is on record?
The protein stability index was 3.51.

Which protein stability index does the source give for CHICHLKLYTGPGLAIHCMQVHKE [K6L] here?
The protein stability index was 2.36.

For CHICHNKLYTGPGLAIHCMQVHKE [K6N], which protein stability index is on record?
Its protein stability index is 3.25.

Which protein stability index does the source give for CHICHYKLYTGPGLAIHCMQVHKE [K6Y] here?
The protein stability index was 2.72.

Which protein stability index does the source give for CHICHMKLYTGPGLAIHCMQVHKE [K6M] here?
Its protein stability index is 3.35.

With CHICHGKLYTGPGLAIHCMQVHKE [K6G] as the variant, how does the protein stability index read?
Its protein stability index is 3.03.

Which protein stability index does the source give for CHICHCKLYTGPGLAIHCMQVHKE [K6C] here?
Its protein stability index is 3.45.

With CHICHRKLYTGPGLAIHCMQVHKE [K6R] as the variant, how does the protein stability index read?
Its protein stability index is 3.97.

For CHICHSKLYTGPGLAIHCMQVHKE [K6S], which protein stability index is on record?
The protein stability index was 3.54.

For CHICHFKLYTGPGLAIHCMQVHKE [K6F], which protein stability index is on record?
The protein stability index was 1.84.

For CHICHEKLYTGPGLAIHCMQVHKE [K6E], which protein stability index is on record?
Its protein stability index is 4.41.

For CHICHPKLYTGPGLAIHCMQVHKE [K6P], which protein stability index is on record?
The protein stability index was 2.12.

Which protein stability index does the source give for CHICHQKLYTGPGLAIHCMQVHKE [K6Q] here?
The protein stability index was 4.09.

With CHICHDKLYTGPGLAIHCMQVHKE [K6D] as the variant, how does the protein stability index read?
The protein stability index was 3.28.

For CHICHWKLYTGPGLAIHCMQVHKE [K6W], which protein stability index is on record?
The protein stability index was 2.17.

For CHICHKKLYLGPGLAIHCMQVHKE [T10L], which protein stability index is on record?
Its protein stability index is 2.49.

With CHICHKKLYFGPGLAIHCMQVHKE [T10F] as the variant, how does the protein stability index read?
Its protein stability index is 2.4.

For CHICHKKLYEGPGLAIHCMQVHKE [T10E], which protein stability index is on record?
The protein stability index was 3.83.

Which protein stability index does the source give for CHICHKKLYRGPGLAIHCMQVHKE [T10R] here?
Its protein stability index is 2.52.

With CHICHKKLYCGPGLAIHCMQVHKE [T10C] as the variant, how does the protein stability index read?
Its protein stability index is 2.92.

For CHICHKKLYHGPGLAIHCMQVHKE [T10H], which protein stability index is on record?
The protein stability index was 2.68.

For CHICHKKLYVGPGLAIHCMQVHKE [T10V], which protein stability index is on record?
The protein stability index was 3.5.

Which protein stability index does the source give for CHICHKKLYDGPGLAIHCMQVHKE [T10D] here?
The protein stability index was 4.59.

For CHICHKKLYSGPGLAIHCMQVHKE [T10S], which protein stability index is on record?
Its protein stability index is 3.31.

With CHICHKKLYPGPGLAIHCMQVHKE [T10P] as the variant, how does the protein stability index read?
The protein stability index was 3.68.
